Source: publication PMC3352945

What was measured:
imported cpTatC = test: radioligand binding
[1] = target: cpTatC (pea (endogenous in pea thylakoids)); test: pull-down

Chain of tOE17-GS3-His (Q41048 whole entry): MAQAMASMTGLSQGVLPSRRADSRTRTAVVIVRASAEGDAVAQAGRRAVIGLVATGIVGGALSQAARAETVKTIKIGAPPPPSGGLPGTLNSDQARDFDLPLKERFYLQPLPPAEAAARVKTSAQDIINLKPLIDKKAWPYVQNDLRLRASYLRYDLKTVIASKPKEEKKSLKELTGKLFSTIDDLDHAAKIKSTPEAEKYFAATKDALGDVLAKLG
Chain of tOE17 V-20F precursor protein (Q41048 whole entry): as above

| stoichiometry N (tOE17 per imported cpTatC) (imported cpTatC) | stoichiometry N (tOE17-GS3-His per cpTatC) [1] | Substance |
| --- | --- | --- |
| 0.92 |  | tOE17 V-20F precursor protein (from UniProt Q41048 1-217) (natural protein) |
|  | 1.05 | tOE17-GS3-His (from UniProt Q41048 1-217) (natural protein) |
